In patent US12312412 (dated 2025):

B1: MA 10-G2 CC (T1S) (antibody, V domains shown)
VH: EVQLVESGGGLVQPGGSLRLSCAASGFTFSNAWMSWVRQAPGKCLEWVGRILSMHYGGTTDYAAPVKGRFTISRDDSKNTLYLQMNSLKTEDTAVYYCTTPSYSGSYYNYFSVMDVWGQGTTVTVSS
VL: DIQMTQSPSSLSASVGDRVTITCRTSQSISSYLNWFQQKPGKAPKLLIFAASSLQSGVPSRFSGSGSGTDFTLTISSLQPEDFATYYCQQTYSMPFTFGCGTKVDIK
B2: MA 10-H3 CC (M9L) (antibody, V domains shown)
VH: EVQLVESGGGLVQPGGSLRLSCAASGFTFSNAWMSWVRQAPGKCLEWVGRIRSRPYGGTTDYAAPVKGRFTISRDDSKNTLYLQMNSLKTEDTAVYYCTTPSYSGSYYNYFSVMDVWGQGTTVTVSS
VL: DIQMTQSPSSLSASVGDRVTITCRTSQSISSYLNWYQQKPGRAPKLLIFAASSLQGGVPSRFSGSGSGTDFTLTISSLQPEDFATYYCQQTYSSPFTFGCGTKLEIK
B3: MA 09-H7 CC (T3S) (antibody, V domains shown)
VH: QITLKESGPALVKPTQTLTLTCTFSGFSFTTHKMGVDWIRQPPGKCLEWLALIYWNDDKRYSPSLQSRLTITKDTSKNQVVLTMTNMDPVDTATYYCAYRRYNWNYENWFDPWGQGTLVTVSS
VL: DIQMTQSPSSLSASVGDRVTITCQASQDISNYLNWYQQKPGKAPKLLIYAASSLQSGVPSRFSGSGSGTDFTLTISSLQPEDFATYYCQQSYFPVVEFGCGTKVEIK
B4: MA 03-E11 AS CC (G2B) (antibody, V domains shown)
VH: EVQLLESGGGLVQPGGSLRLSCAASGFTFSSHAMSWVRQAPGKCLEWVSAISGSGGGTYNAASVKGRFTISRDNSKNTLYLQMNSLRAEDTAAYYCVTGKGVHLGFDYWGQGTLVTVSS
VL: SYVLTQPPSVSVAPGQTARITCGGNNIGSKSVHWYQQKPGQAPVMVVYDDNDRPSGIPERFSGSNSGNTATLTISRVEAGDEADYYCQVWDYYSNRAVFGCGTKLTVL
B5: MA 03-H12_AS CC (K5A) (antibody, V domains shown)
VH: EVQLLESGGGLVQPGGSLRLSCAASGFTFSSHAMSWVRQAPGKCLEWVSAISGSGGGTYNAASVKGRFTISRDNSKNTLYLQMNSLRAEDTAAYYCVTGKGVHLGFDYWGQGTLVTVSS
VL: SYVLTQPPSVSVAPGQTARITCGGNNIGSKSVHWYQQKPGQAPVMVVYDDNDRPSGIPERFSGSNFGNTATLTISRVEAGDEADYYCQVWDYVTPRWVFGCGTKLTVL
B6: MA 03-D12_AS CC (L6A) (antibody, V domains shown)
VH: EVQLLESGGGLVQPGGSLRLSCAASGFTFSSHAMSWVRQAPGKCLEWVSAISGSGGGTYYAASVKARFTISRDNSKNTLYLQMNSLRAEDTAVYYCATGKGVHLGFDYWGQGTLVTVSS
VL: SYVLTQPPSVSVAPGQTARITCGGNNIGSKSVHWYQQKPGQAPVMVVYDDNDRPSGIPERFSGSNSGNTATLTISRVEAGDEADYYCQVWDYLRQQQVFGCGTKLTVL
B7: MA 03-G11_AS CC (O4R) (antibody, V domains shown)
VH: EVQLLESGGGLVKPGGSLRLSCAASGFTFSSHAMSWVRQAPGKCLEWVSAISGSGGGTYYAASVKGRFTISRDNSKNTLYLQMNSLRAEDTAVYYCATGKGVHLNFDYWGQGTLVTVSS
VL: SYVLTQPPSVSVAPGQTARITCGGNNIGSKSVHWYQQKPGQAPVLVVYDDNDRPSGIPERFSGSNFGNTATLIISRVEAGDEADYYCQVWDYLLPGQVFGCGTKLTVL
B8: MA 03-C7_AS CC (G2H) (antibody, V domains shown)
VH: EVQLLESGGGLVQPGGSLRLSCAASGFTFSSHAMSWVRQAPGKCLEWVSAISGSGGGTYYAASVKGRFTISRDNSKNTLYLQMNSLRAEDTAVYYCATGKGVHLGFDYWGQGTLVTVSS
VL: SYVLTQPPSVSVAPGQTARITCGGNNIGSKSVHWYQQKPGQAPVMVVYDDNDRPSGIPERFSGSNSGNTATLTISRVEAGDEADYYCQVWDYERPAMVFGCGTKLTVL

Target: MAGEB2 peptide … / HLA-A*02:01 / b2m (human)
Experiment: FACS

Binder | Kd [nM]
B1 | 1
B2 | 0.7
B3 | 0.8
B4 | 4.2
B5 | 1.1
B6 | 0.7
B7 | 1.3
B8 | 1.5
